According to PMC8131196, “Structure and dynamics of a mycobacterial type VII secretion system” (Nature, 2021):

Legend:
Experiment in all cases: cryo-EM structure
[1] = molecular target: T1, MycP5 protease (M. tuberculosis H37Rv, UniProt O53945 40-585); conditions: both partners purified
T1 construct: also called mycosin
T1 sequence: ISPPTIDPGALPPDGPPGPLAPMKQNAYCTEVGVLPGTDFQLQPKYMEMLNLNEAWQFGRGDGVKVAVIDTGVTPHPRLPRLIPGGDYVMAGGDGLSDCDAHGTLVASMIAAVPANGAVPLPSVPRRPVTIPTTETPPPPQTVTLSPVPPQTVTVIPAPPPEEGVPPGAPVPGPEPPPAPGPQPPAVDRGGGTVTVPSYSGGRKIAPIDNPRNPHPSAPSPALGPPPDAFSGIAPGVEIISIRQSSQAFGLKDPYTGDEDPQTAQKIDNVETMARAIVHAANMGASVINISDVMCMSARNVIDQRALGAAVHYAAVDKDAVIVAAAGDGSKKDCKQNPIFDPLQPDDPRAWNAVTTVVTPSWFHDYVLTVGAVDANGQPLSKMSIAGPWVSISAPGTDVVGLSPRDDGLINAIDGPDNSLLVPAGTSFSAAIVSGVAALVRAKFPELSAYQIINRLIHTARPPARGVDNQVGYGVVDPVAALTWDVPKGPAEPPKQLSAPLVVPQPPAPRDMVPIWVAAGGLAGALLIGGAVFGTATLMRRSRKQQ

[2] = molecular target: T2, EccC5 (M. tuberculosis H37Rv, UniProt P9WNA5 1-1391); conditions: both partners purified
T2 construct: also called EccC5 ATPase; not shown: TwinStrep, C-terminal, kept
T2 sequence: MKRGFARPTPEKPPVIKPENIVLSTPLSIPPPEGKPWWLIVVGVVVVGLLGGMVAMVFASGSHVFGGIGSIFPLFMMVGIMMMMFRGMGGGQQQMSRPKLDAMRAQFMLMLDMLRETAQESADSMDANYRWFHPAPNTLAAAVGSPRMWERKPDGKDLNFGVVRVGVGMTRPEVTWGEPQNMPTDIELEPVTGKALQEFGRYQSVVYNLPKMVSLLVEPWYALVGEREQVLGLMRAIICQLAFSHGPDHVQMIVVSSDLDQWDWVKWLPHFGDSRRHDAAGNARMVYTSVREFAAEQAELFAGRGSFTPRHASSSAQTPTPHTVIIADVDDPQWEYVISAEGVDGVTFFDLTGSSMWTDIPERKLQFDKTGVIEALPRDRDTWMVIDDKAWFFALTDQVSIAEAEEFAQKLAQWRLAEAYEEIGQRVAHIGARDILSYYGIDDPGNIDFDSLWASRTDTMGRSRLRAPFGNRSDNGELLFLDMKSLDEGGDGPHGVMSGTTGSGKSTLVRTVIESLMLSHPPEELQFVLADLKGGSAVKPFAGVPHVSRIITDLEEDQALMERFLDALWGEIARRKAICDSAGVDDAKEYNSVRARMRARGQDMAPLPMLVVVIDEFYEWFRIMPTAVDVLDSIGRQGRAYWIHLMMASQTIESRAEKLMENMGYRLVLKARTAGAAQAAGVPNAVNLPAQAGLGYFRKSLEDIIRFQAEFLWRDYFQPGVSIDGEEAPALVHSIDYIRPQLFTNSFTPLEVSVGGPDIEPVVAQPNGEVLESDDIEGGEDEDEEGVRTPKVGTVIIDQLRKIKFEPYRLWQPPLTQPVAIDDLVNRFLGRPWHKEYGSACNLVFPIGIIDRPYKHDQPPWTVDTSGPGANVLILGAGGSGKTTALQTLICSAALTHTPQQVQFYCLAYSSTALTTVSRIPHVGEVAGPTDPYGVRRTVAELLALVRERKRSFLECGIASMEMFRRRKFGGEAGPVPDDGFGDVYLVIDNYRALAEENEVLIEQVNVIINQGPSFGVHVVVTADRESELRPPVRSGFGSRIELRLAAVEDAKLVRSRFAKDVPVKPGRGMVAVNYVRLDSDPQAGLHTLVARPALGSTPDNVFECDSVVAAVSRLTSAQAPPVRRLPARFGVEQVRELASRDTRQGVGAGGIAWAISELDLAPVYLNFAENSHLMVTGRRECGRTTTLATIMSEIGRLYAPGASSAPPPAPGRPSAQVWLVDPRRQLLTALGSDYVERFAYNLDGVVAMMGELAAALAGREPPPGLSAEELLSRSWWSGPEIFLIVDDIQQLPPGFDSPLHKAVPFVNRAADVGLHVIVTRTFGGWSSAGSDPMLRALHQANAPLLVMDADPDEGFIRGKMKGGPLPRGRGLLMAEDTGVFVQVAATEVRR

[3] = molecular target: T3, EccB5 (M. tuberculosis H37Rv, UniProt P9WNQ9 1-506); conditions: both partners purified
T3 construct: also called inner EccB5; outer EccB5
T3 sequence: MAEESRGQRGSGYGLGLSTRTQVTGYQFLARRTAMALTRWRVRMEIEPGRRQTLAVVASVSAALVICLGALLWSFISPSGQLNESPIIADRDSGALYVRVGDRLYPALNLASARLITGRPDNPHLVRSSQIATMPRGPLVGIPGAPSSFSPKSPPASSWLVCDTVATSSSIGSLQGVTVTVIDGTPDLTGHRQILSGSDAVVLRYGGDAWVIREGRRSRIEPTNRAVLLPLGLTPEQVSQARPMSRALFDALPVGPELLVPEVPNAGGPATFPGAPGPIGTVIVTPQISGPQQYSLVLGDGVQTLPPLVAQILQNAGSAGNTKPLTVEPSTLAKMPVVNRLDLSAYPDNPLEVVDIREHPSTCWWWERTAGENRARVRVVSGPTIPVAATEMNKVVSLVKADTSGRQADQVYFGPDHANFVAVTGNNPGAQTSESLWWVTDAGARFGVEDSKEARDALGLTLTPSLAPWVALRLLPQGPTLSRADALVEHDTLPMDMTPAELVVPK

[4] = molecular target: the molecule itself

B1: EccD5 (natural protein)
chain: MTAVADAPQADIEGVASPQAVVVGVMAGEGVQIGVLLDANAPVSVMTDPLLKVVNSRLRELGEAPLEATGRGRWALCLVDGAPLRATQSLTEQDVYDGDRLWIRFIADTERRSQVIEHISTAVASDLSKRFARIDPIVAVQVGASMVATGVVLATGVLGWWRWHHNTWLTTIYTAVIGVLVLAVAMLLLMRAKTDADRRVADIMLMSAIMPVTVAAAAAPPGPVGSPQAVLGFGVLTVAAALALRFTGRRLGIYTTIVIIGALTMLAALARMVAATSAVTLLSSLLLICVVAYHAAPALSRRLAGIRLPVFPSATSRWVFEARPDLPTTVVVSGGSAPVLEGPSSVRDVLLQAERARSFLSGLLTGLGVMVVVCMTSLCDPHTGQRWLPLILAGFTSGFLLLRGRSYVDRWQSITLAGTAVIIAAAVCVRYALELSSPLAVSIVAAILVLLPAAGMAAAAHVPHTIYSPLFRKFVEWIEYLCLMPIFPLALWLMNVYAAIRYR
notes: also called inner EccD5; outer EccD5
B1: binds [1]; binds [2]; binds [3]. The “stoichiometry N” value [4] was 2.
